In this experiment the target is T1, GST-ACLY (UniProt P53396 1-1101).
T1 construct: ATP citrate lyase (ACLY), cloned into pGEX-4T1; also called GST-ACLY protein; source: E. coli BL21 (DE3), purified (Glutathione Sepharose 4B)
T1 sequence (looked up): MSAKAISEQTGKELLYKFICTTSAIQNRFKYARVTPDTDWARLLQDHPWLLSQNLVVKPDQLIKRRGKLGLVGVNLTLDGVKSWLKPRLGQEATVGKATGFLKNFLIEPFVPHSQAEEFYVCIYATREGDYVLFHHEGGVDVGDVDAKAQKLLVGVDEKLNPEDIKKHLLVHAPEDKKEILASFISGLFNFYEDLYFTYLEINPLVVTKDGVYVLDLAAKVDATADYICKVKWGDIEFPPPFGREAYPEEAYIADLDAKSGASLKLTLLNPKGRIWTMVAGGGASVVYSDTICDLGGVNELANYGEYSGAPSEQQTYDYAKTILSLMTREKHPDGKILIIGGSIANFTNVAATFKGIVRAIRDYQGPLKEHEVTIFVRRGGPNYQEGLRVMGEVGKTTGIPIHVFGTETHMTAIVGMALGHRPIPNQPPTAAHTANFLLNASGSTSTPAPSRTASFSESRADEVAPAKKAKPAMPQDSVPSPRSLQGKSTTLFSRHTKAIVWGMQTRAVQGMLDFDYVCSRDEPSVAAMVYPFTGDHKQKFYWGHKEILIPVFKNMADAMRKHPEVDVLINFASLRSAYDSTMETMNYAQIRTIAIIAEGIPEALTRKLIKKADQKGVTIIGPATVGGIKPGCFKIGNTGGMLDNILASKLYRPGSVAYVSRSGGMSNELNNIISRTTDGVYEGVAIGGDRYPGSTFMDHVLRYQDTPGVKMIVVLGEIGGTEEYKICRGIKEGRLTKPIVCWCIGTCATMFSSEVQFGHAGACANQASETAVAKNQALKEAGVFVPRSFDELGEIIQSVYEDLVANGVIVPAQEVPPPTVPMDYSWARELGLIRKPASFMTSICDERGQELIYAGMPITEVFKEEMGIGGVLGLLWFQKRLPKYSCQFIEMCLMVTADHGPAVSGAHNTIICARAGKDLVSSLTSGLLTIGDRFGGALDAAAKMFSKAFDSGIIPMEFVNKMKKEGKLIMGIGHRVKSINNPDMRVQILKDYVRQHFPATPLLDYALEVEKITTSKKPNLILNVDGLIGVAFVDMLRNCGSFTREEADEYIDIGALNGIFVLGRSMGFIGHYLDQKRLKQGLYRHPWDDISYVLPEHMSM
The experiment is described as follows: pull-down; GST-ACLY or GST-ACLY deletion mutants bound to Glutathione Sepharose 4B, incubated with purified Flag-NAT10; WB with anti-Flag. The conditions noted are these: both partners purified.

B1: Flag-NAT10-His (natural protein, UniProt Q9H0A0 1-1025, looked up)
chain: MHRKKVDNRIRILIENGVAERQRSLFVVVGDRGKDQVVILHHMLSKATVKARPSVLWCYKKELGFSSHRKKRMRQLQKKIKNGTLNIKQDDPFELFIAATNIRYCYYNETHKILGNTFGMCVLQDFEALTPNLLARTVETVEGGGLVVILLRTMNSLKQLYTVTMDVHSRYRTEAHQDVVGRFNERFILSLASCKKCLVIDDQLNILPISSHVATMEALPPQTPDESLGPSDLELRELKESLQDTQPVGVLVDCCKTLDQAKAVLKFIEGISEKTLRSTVALTAARGRGKSAALGLAIAGAVAFGYSNIFVTSPSPDNLHTLFEFVFKGFDALQYQEHLDYEIIQSLNPEFNKAVIRVNVFREHRQTIQYIHPADAVKLGQAELVVIDEAAAIPLPLVKSLLGPYLVFMASTINGYEGTGRSLSLKLIQQLRQQSAQSQVSTTAENKTTTTARLASARTLYEVSLQESIRYAPGDAVEKWLNDLLCLDCLNITRIVSGCPLPEACELYYVNRDTLFCYHKASEVFLQRLMALYVASHYKNSPNDLQMLSDAPAHHLFCLLPPVPPTQNALPEVLAVIQVCLEGEISRQSILNSLSRGKKASGDLIPWTVSEQFQDPDFGGLSGGRVVRIAVHPDYQGMGYGSRALQLLQMYYEGRFPCLEEKVLETPQEIHTVSSEAVSLLEEVITPRKDLPPLLLKLNERPAERLDYLGVSYGLTPRLLKFWKRAGFVPVYLRQTPNDLTGEHSCIMLKTLTDEDEADQGGWLAAFWKDFRRRFLALLSYQFSTFSPSLALNIIQNRNMGKPAQPALSREELEALFLPYDLKRLEMYSRNMVDYHLIMDMIPAISRIYFLNQLGDLALSAAQSALLLGIGLQHKSVDQLEKEIELPSGQLMGLFNRIIRKVVKLFNEVQEKAIEEQMVAAKDVVMEPTMKTLSDDLDEAAKEFQEKHKKEVGKLKSMDLSEYIIRGDDEEWNEVLNKAGPNASIISLKSDKKRKLEAKQEPKQSKKLKNRETKNKKDMKLKRKK
notes: N-acetyltransferase 10 (NAT10), cloned into pFast-Bac1 as Flag-NAT10-His; also called purified Flag-NAT10; source: baculovirus-infected sf9 cells, purified (Ni-NTA agarose)
As to B1, the binding result was “binds”.

Source of the values: paper PMC11291975, “Chemotherapy-induced acetylation of ACLY by NAT10 promotes its nuclear accumulation and acetyl-CoA production to drive chemoresistance in hepatocellular carcinoma” (Cell Death & Disease, 2024).
